The values below come from paper PMC4204775 (Human Molecular Genetics, 2014).

The target in series [1] is T1, AGT-Ma (S81L-Ma homodimer) (Homo sapiens, UniProt P21549, S81L).
T1 sequence (P21549 1-392 S81L): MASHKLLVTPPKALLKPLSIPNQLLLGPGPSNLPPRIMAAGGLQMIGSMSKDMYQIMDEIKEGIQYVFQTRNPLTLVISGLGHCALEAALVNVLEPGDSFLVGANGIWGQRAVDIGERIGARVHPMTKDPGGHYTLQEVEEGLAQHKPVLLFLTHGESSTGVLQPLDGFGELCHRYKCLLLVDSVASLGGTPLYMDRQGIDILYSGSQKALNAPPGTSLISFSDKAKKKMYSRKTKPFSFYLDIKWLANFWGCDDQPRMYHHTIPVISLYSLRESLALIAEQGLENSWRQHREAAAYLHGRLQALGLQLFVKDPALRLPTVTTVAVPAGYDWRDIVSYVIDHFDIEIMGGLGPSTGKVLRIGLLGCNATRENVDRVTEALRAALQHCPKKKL
The series is described as follows: CD signal change at […] nm on PLP titration of apoenzyme. It counts as binding.

Substrate in series [2]: C[C@H](N)C(=O)O
Briefly: pyruvate formation, lactate dehydrogenase-coupled spectrophotometric assay. It counts as biochemical, Homo sapiens. The following applies: saturating glyoxylate, 200 μM PLP, 100 mM potassium phosphate, 25°C.

Substrate in series [3]: O=CC(=O)O
The description is as above. It is filed as biochemical, Homo sapiens. Particulars: saturating L-alanine, 200 μM PLP, 100 mM potassium phosphate, 25°C.

In series [1], `Cc1ncc(COP(=O)(O)O)c(C=O)c1O` [PLP] yielded a Kd of 17 ± 3 µM.

B1: AGT-Ma (S81L-Ma homodimer) (Homo sapiens; S81L) (protein)
chain: T1 sequence (P21549 1-392 S81L)
For B1, the kcat in series [2] was 13.9 ± 0.9 s⁻¹. Also, in series [3], the Km turned out to be 160 ± 20 µM and the kcat stood at 13.9 ± 0.9 s⁻¹.

One may read the Kd as the free concentration of one partner at which half of the binding sites on the other are occupied at equilibrium, for simple one-to-one binding. High values mean lower affinity, low ones higher affinity. Broadly, the kcat is the maximal rate divided by the concentration of active sites. By Km is commonly meant the substrate concentration at which the rate is half of its maximum.
